From PMC6365055, “High resolution cryo-EM structure of the helical RNA-bound Hantaan virus nucleocapsid reveals its assembly mechanisms” (eLife, 2019)

B1: NP_(74-429) construct obtained by trypsin limited proteolysis of HTNV-NC (domain or fragment)
chain: NLGKEQDPTGVEPGDHLKERSMLSYGNVLDLNHLDIDEPTGQTADWLSIIVYLTSFVVPILLKALYMLTTRGRQTTKDNKGTRIRFKDDSSFEDVNGIRKPKHLYVSLPNAQSSMKAEEITPGRYRTAVCGLYPAQIKARQMISPVMSVIGFLALAKDWSDRIEQWLIEPCKLLPDTAAVSLLGGPATNRDYLRQRQVALGNMETKESKAIRQHAEAAGCSMIEDIESPSSIWVFAGAPDRCPPTCLFIAGIAELGAFFSILQDMRNTIMASKTVGTSEEKLRKKSSFYQSYLRRTQSMGIQLGQRIIVLFMVAWGKEAVDNFHLGDDMDPELRTLAQSLIDVKVKEISNQEPLKL
notes: also called truncated construct NP_(74-429)
B2: Hantaan virus nucleoprotein, recombinant full-length (natural protein)
chain: MATMEELQREINAHEGQLVIARQKVRDAEKQYEKDPDELNKRTLTDREGVAVSIQAKIDELKRQLADRIATGKNLGKEQDPTGVEPGDHLKERSMLSYGNVLDLNHLDIDEPTGQTADWLSIIVYLTSFVVPILLKALYMLTTRGRQTTKDNKGTRIRFKDDSSFEDVNGIRKPKHLYVSLPNAQSSMKAEEITPGRYRTAVCGLYPAQIKARQMISPVMSVIGFLALAKDWSDRIEQWLIEPCKLLPDTAAVSLLGGPATNRDYLRQRQVALGNMETKESKAIRQHAEAAGCSMIEDIESPSSIWVFAGAPDRCPPTCLFIAGIAELGAFFSILQDMRNTIMASKTVGTSEEKLRKKSSFYQSYLRRTQSMGIQLGQRIIVLFMVAWGKEAVDNFHLGDDMDPELRTLAQSLIDVKVKEISNQEPLKL
notes: also called HTNV-NP; NP

What was measured:
negative stain EM = biological target: the molecule itself; assay: negative stain EM
cryo-EM structure = biological target: the molecule itself; assay: cryo-EM structure

Protein	binding result (negative stain EM)	binding result (cryo-EM structure)
B1	binds	
B2		binds
